Source: article PMC4449314
Values joined by “and” are separate entries in the source; they are usually repeats but may differ in a detail not shown here. Equal entries are not always repeated.

Assays:
[1] = target: HA-tagged human DAP12 (full length, both native cysteines), in 293T cells (human), O43914; assay: non-reducing SDS-PAGE of disulfide-linked products after anti-HA IP; settings: remark: other sources report otherwise
[2] = target: HA-tagged human DAP12 wild type, in vitro translated with ER microsomes (human), O43914; assay: as above; settings: remark: other sources report otherwise

Binder	stoichiometry N [1]	stoichiometry N [2]
HA-tagged human DAP12 (full length, both native cysteines), in 293T cells, O43914 22-113 (natural protein) LRPVQAQAQSDCSCSTVSPGVLAGIVMGDLVLTVLIALAVYFLGRLVPRGRGAAEAATRKQRITETESPYQELQGQRSDVYSDLNTQRPYYK	2 and 3 and 4	–
HA-tagged human DAP12 wild type, in vitro translated with ER microsomes, O43914 22-113 (natural protein, here or on the partner: 35S-methionine/cysteine labelled; 35S-methionine/cysteine labelled) LRPVQAQAQSDCSCSTVSPGVLAGIVMGDLVLTVLIALAVYFLGRLVPRGRGAAEAATRKQRITETESPYQELQGQRSDVYSDLNTQRPYYK	–	3 and 4
